Assay results published in article PMC7591920 (Nature Communications, 2020).
Bridge positions count the residues as written; N and C are the ends. Square brackets hold non-standard residues; d marks the D form. Primed or numbered codes have the meaning given here. Ends that are not written are not given here. * marks the point of attachment. FITC = O=C1OC2(c3ccc(O)cc3Oc3cc(O)ccc32)c2ccc(NC(=S)*)cc21; PEG2′ = not defined here; Peg = not defined here; AEEA = NCCOCCOCC(=O)O

B1: YAP(50-100) (peptide, UniProt P46937 50-100, looked up)
peptide: AGHQIVHVRGDSETDLEALFNAVMNPKTANVPQTVPMRLRKLPDSFFKPPE
notes: yes-associated protein YAP, residues 50-100
B2: FITC-labelled peptide 4E (peptide)
peptide: {FITC-Peg}-SVEDHFAKALGDTWLQIKAA
modifications: lactam 3-18; reading uncertain
notes: macrocyclic VGL4 two-helix motif 4E; numbers count on: mouse VGL4 as in PDB 4LN0; Rink amide resin: C-terminal amide surmised; also called 4E (FITC-Peg); source: synthetic peptide
B3: FITC-labelled peptide 7 (Tat-PEG2-4E) (peptide)
peptide: GRKKRRQRRRPQ[PEG2′]SVEDHFAKALGDTWLQIKAA
modifications: not fully specified (some residues); also: FITC label, place not given here
notes: also called 7 (FITC-Peg); source: synthetic peptide
B4: peptide 24 (alanine scan of 4E), acetylated (peptide)
peptide: Ac-SVEDHFAKALGDTWAQIKAA
modifications: lactam 3-18
notes: macrocyclic VGL4 two-helix motif 4E with one alanine; numbers count on: mouse VGL4 as in PDB 4LN0; Synthesised on Rink amide resin: C-terminal amide surmised; source: synthetic peptide
B5: peptide 26 (alanine scan of 4E), acetylated (peptide)
peptide: Ac-SVEDHFAKALGDTWLQAKAA
modifications: lactam 3-18
notes: as for B4
B6: peptide 14 (alanine scan of 4E), acetylated (peptide)
peptide: Ac-AVEDHFAKALGDTWLQIKAA
modifications: lactam 3-18
notes: as for B4
B7: peptide 16 (alanine scan of 4E), acetylated (peptide)
peptide: Ac-SVEAHFAKALGDTWLQIKAA
modifications: lactam 3-18
notes: as for B4
B8: peptide 15 (alanine scan of 4E), acetylated (peptide)
peptide: Ac-SAEDHFAKALGDTWLQIKAA
modifications: lactam 3-18
notes: as for B4
B9: peptide 21 (alanine scan of 4E), acetylated (peptide)
peptide: Ac-SVEDHFAKALGATWLQIKAA
modifications: lactam 3-18
notes: as for B4
B10: peptide 25 (alanine scan of 4E), acetylated (peptide)
peptide: Ac-SVEDHFAKALGDTWLAIKAA
modifications: lactam 3-18
notes: as for B4
B11: peptide 18 (alanine scan of 4E), acetylated (peptide)
peptide: Ac-SVEDHAAKALGDTWLQIKAA
modifications: lactam 3-18
notes: as for B4
B12: peptide 19 (alanine scan of 4E), acetylated (peptide)
peptide: Ac-SVEDHFAAALGDTWLQIKAA
modifications: lactam 3-18
notes: as for B4
B13: peptide 17 (alanine scan of 4E), acetylated (peptide)
peptide: Ac-SVEDAFAKALGDTWLQIKAA
modifications: lactam 3-18
notes: as for B4
B14: peptide 20 (alanine scan of 4E), acetylated (peptide)
peptide: Ac-SVEDHFAKAAGDTWLQIKAA
modifications: lactam 3-18
notes: as for B4
B15: VGL4(203–256), full-length VGL4-derived TEAD binding sequence (peptide 1) (peptide, UniProt Q80V24 203-256, looked up)
peptide: DPVVEEHFRRSLGKNYKEPEPAPNSVSITGSVDDHFAKALGDTWLQIKAAKDSA
notes: mouse and human VGL4 are said to be identical in this stretch; Made on Rink amide resin, so probably a C-terminal amide; source: synthetic peptide (Fmoc solid-phase synthesis, RP-HPLC purified)
B16: peptide 4, acetylated (two-helix motif of VGL4) (peptide)
peptide: Ac-SVDDHFAKALGDTWLQIKAA
notes: VGL4 two-helix motif (helices alpha2/alpha3); Synthesised on Rink amide resin: C-terminal amide surmised; source: synthetic peptide
B17: peptide 23 (alanine scan of 4E), acetylated (peptide)
peptide: Ac-SVEDHFAKALGDTALQIKAA
modifications: lactam 3-18
notes: as for B4
B18: peptide 22 (alanine scan of 4E), acetylated (peptide)
peptide: Ac-SVEDHFAKALGDAWLQIKAA
modifications: lactam 3-18
notes: as for B4
B19: peptide 7, acetylated (Tat-PEG2-4E) (peptide)
peptide: Ac-GRKKRRQRRRPQ[AEEA]SVEDHFAKALGDTWLQIKAA-NH2
modifications: lactam 16-31; not fully specified (some residues)
notes: cell-penetrating Tat peptide; macrocyclic VGL4 two-helix motif 4E; numbers count on: mouse VGL4 as in PDB 4LN0; The two parts are joined by a PEG2 unit that is no amino acid; Rink amide resin: C-terminal amide surmised; source: synthetic peptide
B20: peptide 4E(open), acetylated (peptide)
peptide: Ac-SVEDHFAKALGDTWLQIKAA
notes: VGL4 two-helix motif with E at 235, not cyclised; numbers count on: mouse VGL4 as in PDB 4LN0; Synthesised on Rink amide resin: C-terminal amide surmised; also called linear version of 4E; source: synthetic peptide
B21: VGL4(203-256), acetylated (peptide 1) (peptide)
peptide: Ac-DPVVEEHFRRSLGKNYKEPEPAPNSVSITGSVDDHFAKALGDTWLQIKAAKDSA
notes: numbers count on: mouse VGL4 as in PDB 4LN0; Synthesised on Rink amide resin: C-terminal amide surmised (masses fit); also called hVGL4(203-256); source: synthetic peptide
B22: FITC-labelled VGL4(203-256) (peptide)
peptide: B15 peptide
modifications: also: FITC label, place not given here
notes: numbers count on: mouse VGL4 as in PDB 4LN0; also called FITC-VGL4

Target: T1, mouse TEAD4(210-427) (mouse, UniProt Q62296 210-427)
T1 construct: mouse TEAD4, residues 210-427; The tag was cleaved with 3C protease only for the crystallisation; nothing is said for SPR and FP; also called mTEAD4; source: E. coli BL21 DE3 RIL, purified (His Trap, SEC)
Assay: SPR; GST-hTEAD1 or mTEAD4 amine-coupled to a CM5 chip (10 mM MES pH 6.4), peptides as analytes; 10 mM HEPES, 150 mM NaCl, 0.05% Tween-20, pH 7.4, 20 °C, 30 µL/min; steady-state fit, 1:1 model
Conditions: both partners purified

T1 sequence (Q62296 210-427): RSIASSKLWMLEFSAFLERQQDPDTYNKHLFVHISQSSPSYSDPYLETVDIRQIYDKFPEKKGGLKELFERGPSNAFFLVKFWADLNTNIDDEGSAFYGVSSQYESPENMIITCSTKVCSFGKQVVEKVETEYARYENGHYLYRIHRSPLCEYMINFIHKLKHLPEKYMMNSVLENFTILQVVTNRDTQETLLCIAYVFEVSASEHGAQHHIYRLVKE

Row | Binder | Kd
1 | B1 | 700 nM

Target: T1, mouse TEAD4(210-427)
Assay: fluorescence polarisation; direct: FITC-labelled peptide (10 nM) titrated with hTEAD1 or mTEAD4; 10 mM HEPES, 150 mM NaCl, 0.1% Tween-20, pH 7.4; read after 1 h
Conditions: both partners purified

Row | Binder | Kd
2 | B2 | 32 ± 5 nM
3 | B3 | 51 ± 5 nM

Target: T2, GST-hTEAD1(209-426) (human, UniProt P28347 209-426)
T2 construct: A 3C protease site stands between tags and protein; also called human TEAD1; source: E. coli BL21 DE3 RIL, purified (His Trap, SEC); not shown: GST, N-terminal, kept
Assay: as above
Conditions: both partners purified

T2 sequence (P28347 209-426): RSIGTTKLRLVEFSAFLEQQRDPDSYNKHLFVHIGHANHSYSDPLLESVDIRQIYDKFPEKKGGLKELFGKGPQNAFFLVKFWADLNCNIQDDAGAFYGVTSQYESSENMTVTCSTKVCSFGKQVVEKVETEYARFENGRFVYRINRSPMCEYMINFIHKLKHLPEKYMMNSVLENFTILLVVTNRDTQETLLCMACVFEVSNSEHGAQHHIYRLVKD

Row | Binder | Kd
4 | B2 | 168 ± 37 nM
5 | B3 | 147 ± 70 nM

Target: T1, mouse TEAD4(210-427)
Assay: fluorescence polarisation; competition: acetylated peptide titrated (50 µM-6 pM) against mTEAD4 (400 nM) with a FITC-labelled tracer peptide (10 nM; tracer not named); read after 1 h
Conditions: both partners purified

Row | Binder | IC50
6 | B4 | 100 ± 10 nM
7 | B5 | 7400 ± 6100 nM
8 | B6 | 6100 ± 4300 nM
9 | B7 | 3000 ± 760 nM
10 | B8 | 2100 ± 560 nM
11 | B9 | > 100000 nM
12 | B10 | 60 ± 10 nM
13 | B11 | > 50000 nM
14 | B12 | 280 ± 90 nM
15 | B13 | > 100000 nM
16 | B14 | > 100000 nM

Target: T3, mouse TEAD4(210–427), as purified (SPR) (mouse, UniProt Q62296 210-427)
T3 construct: cDNA fused with a 6x His-tag and a 3C protease cleavage site in pOPIN S; No tag cleavage is told for the protein used in SPR; cleavage is told only for the crystallised complex; also called mTEAD4; source: E. coli BL21 DE3 RIL, purified (His Trap, SEC)
Assay: SPR; GST-hTEAD1 and mTEAD4 covalently tethered (NHS/EDC) on CM5 chips, 2000–3000 RU; peptides as analytes, threefold dilutions, typically 30 µM top concentration; 10 mM HEPES, 150 mM NaCl, 0.05% Tween-20, pH 7.4, 0.3% DMSO, 20 °C; steady-state fit, 1:1 model
Conditions: both partners purified

T3 sequence (Q62296 210-427): as the sequence (Q62296 210-427) above

Row | Binder | Kd
17 | B15 | 2000 nM

Target: T1, mouse TEAD4(210-427)
Assay: SPR; GST-hTEAD1 or mTEAD4 amine-coupled to a CM5 chip (10 mM MES pH 6.4), peptides as analytes; 10 mM HEPES, 150 mM NaCl, 0.05% Tween-20, pH 7.4, 20 °C, 30 µL/min; steady-state fit, 1:1 model
Conditions: both partners purified
Remark: another data set of the same source

Row | Binder | Kd
18 | B16 | 1500 ± 1000 nM

Target: T2, GST-hTEAD1(209-426)
Assay: as above
Conditions: both partners purified

Row | Binder | Kd
19 | B16 | 830 ± 780 nM

Target: T1, mouse TEAD4(210-427)
Assay: as above
Conditions: both partners purified
Remark: another data set of the same source

Row | Binder | Kd
20 | B4 | 2000 ± 140 nM
21 | B5 | 4400 ± 1350 nM
22 | B6 | 2700 ± 250 nM
23 | B7 | 1600 ± 690 nM
24 | B8 | 1500 ± 370 nM
25 | B9 | > 100000 nM
26 | B10 | 1300 ± 110 nM
27 | B11 | > 100000 nM
28 | B12 | 2800 ± 60 nM
29 | B13 | > 100000 nM
30 | B14 | > 100000 nM

Target: T2, GST-hTEAD1(209-426)
Assay: as above
Conditions: both partners purified
Remark: another data set of the same source

Row | Binder | Kd
31 | B4 | 1100 ± 60 nM
32 | B5 | 2700 ± 1070 nM
33 | B17 | 7800 ± 150 nM
34 | B6 | 1500 ± 20 nM
35 | B7 | 740 ± 460 nM
36 | B8 | 1000 ± 370 nM
37 | B9 | > 100000 nM
38 | B18 | 91000 ± 14000 nM
39 | B10 | 750 ± 120 nM
40 | B11 | > 100000 nM
41 | B12 | 1700 ± 10 nM
42 | B13 | > 100000 nM
43 | B14 | > 100000 nM

Target: T1, mouse TEAD4(210-427)
Assay: as above
Conditions: both partners purified
Remark: another data set of the same source

Row | Binder | Kd
44 | B19 | 1500 ± 1000 nM

Target: T2, GST-hTEAD1(209-426)
Assay: as above
Conditions: both partners purified
Remark: another data set of the same source

Row | Binder | Kd
45 | B19 | 830 ± 780 nM

Target: T1, mouse TEAD4(210-427)
Assay: as above
Conditions: both partners purified
Remark: another data set of the same source

Row | Binder | Kd
46 | B20 | 2400 nM

Target: T2, GST-hTEAD1(209-426)
Assay: as above
Conditions: both partners purified
Remark: another data set of the same source

Row | Binder | Kd
47 | B20 | 3100 nM

Target: T1, mouse TEAD4(210-427)
Assay: as above
Conditions: both partners purified
Remark: another data set of the same source

Row | Binder | Kd
48 | B21 | 3100 nM

Target: T2, GST-hTEAD1(209-426)
Assay: as above
Conditions: both partners purified
Remark: another data set of the same source

Row | Binder | Kd
49 | B21 | 4300 nM

Target: T1, mouse TEAD4(210-427)
Assay: fluorescence polarisation; direct: FITC-labelled peptide (10 nM) titrated with hTEAD1 or mTEAD4; 10 mM HEPES, 150 mM NaCl, 0.1% Tween-20, pH 7.4; read after 1 h
Conditions: both partners purified
Remark: another data set of the same source

Row | Binder | Kd
50 | B22 | 9.2 ± 0.6 nM

Target: T2, GST-hTEAD1(209-426)
Assay: as above
Conditions: both partners purified
Remark: another data set of the same source

Row | Binder | Kd
51 | B22 | 17 ± 2.5 nM
